Assay results: the supplement of paper PMC10567573

B1: ANKRD44 (parent)
chain: FHCIETLVTTGANVNETDDWGRTA

Variants of: B1
Assay: protein stability index of a GFP-peptide fusion (GPS, HEK-293T) (PSI 1-6); higher = more stable
Conditions: c terminus: a fixed tail appended
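Also: lentivirally expressed fusions sorted by FACS into six bins by GFP to DsRed ratio, PSI derived from sequencing read proportions per bin multiplied by bin number.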

Variant | protein stability index
FHCIETLVTTGANVNETDDWTRTA [G21T] | 2.25
FHCIETLVTTGANVNETDDWYRTA [G21Y] | 1.92
FHCIETLVTTGANVNETDDWARTA [G21A] | 2.12
FHCIETLVTTGANVNETDDWDRTA [G21D] | 2.71
FHCIETLVTTGANVNETDDWHRTA [G21H] | 2.32
FHCIETLVTTGANVNETDDWQRTA [G21Q] | 2.21
FHCIETLVTTGANVNETDDWMRTA [G21M] | 2.04
FHCIETLVTTGANVNETDDWLRTA [G21L] | 2.12
FHCIETLVTTGANVNETDDWSRTA [G21S] | 1.89
FHCIETLVTTGANVNETDDWERTA [G21E] | 2.33
FHCIETLVTTGANVNETDDWNRTA [G21N] | 1.68
FHCIETLVTTGANVNETDDWWRTA [G21W] | 2.48
FHCIETLVTTGANVNETDDWKRTA [G21K] | 2.42
FHCIETLVTTGANVNETDDWRRTA [G21R] | 2.5
FHCIETLVTTGANVNETDDWCRTA [G21C] | 1.76
FHCIETLVTTGANVNETDDWIRTA [G21I] | 2.24
FHCIETLVTTGANVNETDDWFRTA [G21F] | 1.87
FHCIETLVTTGANVNETDDWVRTA [G21V] | 2.27
FHCIETLVTTGANVNETDDWPRTA [G21P] | 1.98
FHCIETLVTTGANVNEMDDWGRTA [T17M] | 1.76
FHCIETLVTTGANVNERDDWGRTA [T17R] | 1.71
FHCIETLVTTGANVNEPDDWGRTA [T17P] | 2.6
FHCIETLVTTGANVNESDDWGRTA [T17S] | 2.61
FHCIETLVTTGANVNEADDWGRTA [T17A] | 1.92

Variant | protein stability index
FHCIETLVTTGANVNEYDDWGRTA [T17Y] | 1.9
FHCIETLVTTGANVNEGDDWGRTA [T17G] | 1.86
FHCIETLVTTGANVNECDDWGRTA [T17C] | 2.14
FHCIETLVTTGANVNEFDDWGRTA [T17F] | 2
FHCIETLVTTGANVNEEDDWGRTA [T17E] | 2.84
FHCIETLVTTGANVNEKDDWGRTA [T17K] | 2.02
FHCIETLVTTGANVNEWDDWGRTA [T17W] | 2.04
FHCIETLVTTGANVNEDDDWGRTA [T17D] | 2.29
FHCIETLVTTGANVNEHDDWGRTA [T17H] | 1.83
FHCIETLVTTGANVNEVDDWGRTA [T17V] | 2
FHCIETLVTTGANVNEIDDWGRTA [T17I] | 2.24
FHCIETLVTTGANVNEQDDWGRTA [T17Q] | 2.27
FHCIETLVTTGANVNENDDWGRTA [T17N] | 1.86
FHCIETLVTTGANVNELDDWGRTA [T17L] | 1.76
FHCIETLVTTGANVNETDDWGRTT [A24T] | 2.21
FHCIETLVTTGANVNETDDWGRTC [A24C] | 1.98
FHCIETLVTTGANVNETDDWGRTE [A24E] | 2.27
FHCIETLVTTGANVNETDDWGRTG [A24G] | 2.05
FHCIETLVTTGANVNETDDWGRTI [A24I] | 1.88
FHCIETLVTTGANVNETDDWGRTL [A24L] | 1.91
FHCIETLVTTGANVNETDDWGRTD [A24D] | 2.74
FHCIETLVTTGANVNETDDWGRTQ [A24Q] | 2.06
FHCIETLVTTGANVNETDDWGRTN [A24N] | 2.03
FHCIETLVTTGANVNETDDWGRTH [A24H] | 2.39

Variant | protein stability index
FHCIETLVTTGANVNETDDWGRTV [A24V] | 2.01
FHCIETLVTTGANVNETDDWGRTM [A24M] | 2.39
FHCIETLVTTGANVNETDDWGRTK [A24K] | 2.46
FHCIETLVTTGANVNETDDWGRTW [A24W] | 1.16
FHCIETLVTTGANVNETDDWGRTF [A24F] | 2.24
FHCIETLVTTGANVNETDDWGRTY [A24Y] | 1.78
FHCIETLVTTGANVNETDDWGRTR [A24R] | 2.37
FHCIETLVTTGANVNETDDWGRTP [A24P] | 2.63
FHCIETLVTTGANVNETDDWGRTS [A24S] | 2.06
FHCIETLVTTGANVNETDDWGHTA [R22H] | 1.98
FHCIETLVTTGANVNETDDWGMTA [R22M] | 2.27
FHCIETLVTTGANVNETDDWGGTA [R22G] | 1.88
FHCIETLVTTGANVNETDDWGPTA [R22P] | 3.06
FHCIETLVTTGANVNETDDWGYTA [R22Y] | 1.95
FHCIETLVTTGANVNETDDWGETA [R22E] | 2.91
FHCIETLVTTGANVNETDDWGLTA [R22L] | 2.5
FHCIETLVTTGANVNETDDWGSTA [R22S] | 2.71
FHCIETLVTTGANVNETDDWGWTA [R22W] | 1.49
FHCIETLVTTGANVNETDDWGKTA [R22K] | 2.36
FHCIETLVTTGANVNETDDWGITA [R22I] | 1.9
FHCIETLVTTGANVNETDDWGTTA [R22T] | 2.46
FHCIETLVTTGANVNETDDWGVTA [R22V] | 2.29
FHCIETLVTTGANVNETDDWGFTA [R22F] | 1.65
FHCIETLVTTGANVNETDDWGDTA [R22D] | 3.09

Variant | protein stability index
FHCIETLVTTGANVNETDDWGATA [R22A] | 2.64
FHCIETLVTTGANVNETDDWGNTA [R22N] | 2.35
FHCIETLVTTGANVNETDDWGQTA [R22Q] | 2.7
FHCIETLVTTGANVNETDDWGCTA [R22C] | 1.76
FHCIETLVTTGANVNETRDWGRTA [D18R] | 2.17
FHCIETLVTTGANVNETPDWGRTA [D18P] | 1.71
FHCIETLVTTGANVNETKDWGRTA [D18K] | 1.65
FHCIETLVTTGANVNETYDWGRTA [D18Y] | 2.46
FHCIETLVTTGANVNETLDWGRTA [D18L] | 2.81
FHCIETLVTTGANVNETQDWGRTA [D18Q] | 1.69
FHCIETLVTTGANVNETFDWGRTA [D18F] | 2.21
FHCIETLVTTGANVNETNDWGRTA [D18N] | 2.26
FHCIETLVTTGANVNETADWGRTA [D18A] | 2.07
FHCIETLVTTGANVNETCDWGRTA [D18C] | 2.14
FHCIETLVTTGANVNETWDWGRTA [D18W] | 2.07
FHCIETLVTTGANVNETTDWGRTA [D18T] | 1.85
FHCIETLVTTGANVNETGDWGRTA [D18G] | 1.79
FHCIETLVTTGANVNETIDWGRTA [D18I] | 1.95
FHCIETLVTTGANVNETEDWGRTA [D18E] | 2.09
FHCIETLVTTGANVNETHDWGRTA [D18H] | 1.54
FHCIETLVTTGANVNETVDWGRTA [D18V] | 2.43
FHCIETLVTTGANVNETSDWGRTA [D18S] | 2.18
